Source: the supplement of paper PMC7877785
± gives the uncertainty stated by the source.

Assay: self-splicing fitness, log relative to wild type (ln ratio); higher = more splicing; Tetrahymena group I intron in knt gene, E. coli kanamycin selection, DiMSum; sequences stand for … in CUCUCU…GGAGGGAAAAGUUAUCAGGCAUGCACCUGGUAGCUAGUCUUUAAACCAAUAGAUUGCAUCGGUUUAAAAGGCAAGACCGUCAAAUUGCGGGAAAGGGGUCAACAGCCGUUCAGUACCAAGUCUCAGGGGAAACUUUGAGAUGGCCUUGCAAAGGGUAUGGUAAUAAGCUGACGGACAUGGUCCUAACCACGCAGCCAAGUCCUAAGUCAACAGAUCUUCUGUUGAUAUGGAUGCAGUUCACAGACUAAAUGUCGGUCGGGGAAGAUGUAUUCUUCUCAUAAGAUAUAGUCGGACCUCUCCUUAAUGGGAGCUAGCGGAUGAAGUGAUGCAACACUGGAGCCGCUGGGAACUAAUUUGUAUGCGAAAGUAUAUUGAUUAGUUUUGGAGUACUCGUGGUCG
Outline: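 The eight P1ex-region nucleotides of an intron in the knt kanamycin-resistance gene on pET-22b(+) were all randomised and the library put into E. coli BL21(DE3). Six replicate transformations were grown overnight at 37°C or 30°C on LB agar with or without 25 μg/mL kanamycin, together with 100 μg/mL carbenicillin, 50 μM IPTG and 0.2% rhamnose. Colonies were pooled and amplicon-sequenced on an Illumina HiSeq 2500. Fitness from DiMSum is the error-weighted combination of wild-type-normalised replicate fold changes, kanamycin over none.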

Sequence | self-splicing fitness (ln) (37 °C) | self-splicing fitness (ln) (30 °C)
AGAGAGCAAUAUUACGUAUA | -1.02 ± 0.32 | –
GCCCAGCAAUAUUACGUGUC | -0.349 ± 0.066 | -0.887 ± 0.053
UGACAGCAAUAUUACGGCCG | 0.186 ± 0.19 | -0.739 ± 0.14
AAGCAGCAAUAUUACGCCUU | -1.35 ± 0.12 | -2.42 ± 0.16
CCGAAGCAAUAUUACGAGCG | 0.807 ± 0.1 | -0.283 ± 0.087
AUUCAGCAAUAUUACGAUGA | -0.36 ± 0.15 | -0.652 ± 0.14
GGUUAGCAAUAUUACGCGUU | -0.358 ± 0.19 | -1.01 ± 0.17
GCUGAGCAAUAUUACGCCAA | -3.52 ± 0.46 | –
UGAUAGCAAUAUUACGGCGC | -1.18 ± 0.23 | -2.62 ± 0.22
UCUUAGCAAUAUUACGUUUA | -2.57 ± 0.32 | -2.75 ± 0.33
CAGAAGCAAUAUUACGACCU | 0.0264 ± 0.23 | -2.86 ± 0.4
CGACAGCAAUAUUACGCCGA | -0.991 ± 0.094 | -2.36 ± 0.11
GACAAGCAAUAUUACGACCA | -0.806 ± 0.13 | -0.459 ± 0.12
AAUCAGCAAUAUUACGACCC | -0.615 ± 0.16 | 0.168 ± 0.15
CAUAAGCAAUAUUACGUCGG | -0.568 ± 0.087 | -0.598 ± 0.061
AUACAGCAAUAUUACGCAUG | -0.421 ± 0.12 | -1.44 ± 0.094
ACGGAGCAAUAUUACGGACU | -1.84 ± 0.16 | -2.21 ± 0.15
UUAUAGCAAUAUUACGAGGG | -2.3 ± 0.27 | -3.47 ± 0.26
CUAGAGCAAUAUUACGGGUU | -2.33 ± 0.23 | -4.2 ± 0.29
GACUAGCAAUAUUACGUCCC | -0.833 ± 0.22 | -1.82 ± 0.23
AAUAAGCAAUAUUACGACCA | 0.141 ± 0.29 | -0.614 ± 0.18
CGAGAGCAAUAUUACGUCAC | -2.45 ± 0.3 | -4.62 ± 0.39
ACCCAGCAAUAUUACGUCCC | -0.981 ± 0.17 | -1.18 ± 0.16
AAAAAGCAAUAUUACGGUAU | -0.966 ± 0.08 | -2.2 ± 0.08
CCCUAGCAAUAUUACGGACU | -2 ± 0.32 | -3.48 ± 0.3
UUUAAGCAAUAUUACGCGCA | 0.0171 ± 0.15 | -0.212 ± 0.11

Sequence | self-splicing fitness (ln) (37 °C) | self-splicing fitness (ln) (30 °C)
CAAUAGCAAUAUUACGUCAU | -2.88 ± 0.17 | -3.6 ± 0.14
UCCAAGCAAUAUUACGCGGC | -2.94 ± 0.23 | -2.74 ± 0.23
GUAUAGCAAUAUUACGAGGA | -2.66 ± 0.38 | -2.45 ± 0.26
UCAUAGCAAUAUUACGAUGG | -1.3 ± 0.17 | -3.32 ± 0.19
UCUAAGCAAUAUUACGGCGC | -1.43 ± 0.26 | -1.94 ± 0.34
AUGCAGCAAUAUUACGAGAG | -1.16 ± 0.12 | -4.15 ± 0.27
GUGAAGCAAUAUUACGUUAC | -1.52 ± 0.13 | -2.88 ± 0.11
GCCGAGCAAUAUUACGGACG | -0.841 ± 0.2 | -2.44 ± 0.18
GUAAAGCAAUAUUACGGGCU | -1.24 ± 0.11 | -1.69 ± 0.069
GAAUAGCAAUAUUACGAUGG | -0.977 ± 0.12 | -2.74 ± 0.14
GAUAAGCAAUAUUACGCUUG | -0.952 ± 0.1 | -2.05 ± 0.1
CCGAAGCAAUAUUACGCGUG | -2.56 ± 0.13 | -3.05 ± 0.14
GAUUAGCAAUAUUACGAAGA | -0.415 ± 0.38 | -1.25 ± 0.43
CAUGAGCAAUAUUACGUAUC | -3.15 ± 0.25 | -3.9 ± 0.32
ACAAAGCAAUAUUACGCUGC | -1.26 ± 0.21 | -3.63 ± 0.25
CCCUAGCAAUAUUACGGCCC | -0.5 ± 0.38 | -3.9 ± 0.27
CCUGAGCAAUAUUACGCUCA | -1.94 ± 0.38 | -1.37 ± 0.28
CAAGAGCAAUAUUACGCAAA | -2.56 ± 0.41 | -2.46 ± 0.24
AACCAGCAAUAUUACGUGAA | -0.516 ± 0.087 | -0.843 ± 0.074
CCCGAGCAAUAUUACGUUAA | -2.25 ± 0.16 | -2.82 ± 0.2
UAUUAGCAAUAUUACGCACU | -1.12 ± 0.16 | -1.04 ± 0.19
UGAUAGCAAUAUUACGCUCC | -0.916 ± 0.3 | –
CAGCAGCAAUAUUACGUCGG | -0.0699 ± 0.09 | -0.346 ± 0.063
CUCCAGCAAUAUUACGCCGG | -2.98 ± 0.24 | -3.83 ± 0.26
UCAAAGCAAUAUUACGAAAU | -2.53 ± 0.27 | -2.52 ± 0.2
CAGCAGCAAUAUUACGGAGG | -0.627 ± 0.12 | -1.19 ± 0.082

Sequence | self-splicing fitness (ln) (37 °C) | self-splicing fitness (ln) (30 °C)
ACGGAGCAAUAUUACGCGAU | -1.2 ± 0.17 | –
AACGAGCAAUAUUACGAAUU | -2.16 ± 0.12 | -2.78 ± 0.11
UCGUAGCAAUAUUACGCGGU | -1.6 ± 0.18 | -2.32 ± 0.15
ACGCAGCAAUAUUACGACGU | -0.828 ± 0.097 | -3.11 ± 0.1
ACCCAGCAAUAUUACGCUAU | -0.75 ± 0.08 | -0.847 ± 0.066
CCAUAGCAAUAUUACGCCUG | 0.137 ± 0.099 | -1.08 ± 0.084
AAGCAGCAAUAUUACGCCGG | -0.994 ± 0.17 | -1.52 ± 0.11
CAAUAGCAAUAUUACGACGA | -1.24 ± 0.14 | -2.18 ± 0.22
GAUGAGCAAUAUUACGAUGG | -2 ± 0.25 | -1.57 ± 0.13
CAAGAGCAAUAUUACGCCUG | -2.17 ± 0.32 | -1.47 ± 0.21
CAUCAGCAAUAUUACGCCUC | -1.57 ± 0.24 | –
UUAGAGCAAUAUUACGUCAG | -0.83 ± 0.17 | -1.02 ± 0.15
GCAUAGCAAUAUUACGUUCG | 0.166 ± 0.09 | -1.43 ± 0.08
AUUGAGCAAUAUUACGCACA | -1.41 ± 0.24 | -1.81 ± 0.16
GUAGAGCAAUAUUACGGUGU | -1.23 ± 0.099 | -1.82 ± 0.081
CGUAAGCAAUAUUACGCCUU | -2.05 ± 0.31 | -2.51 ± 0.23
CCUUAGCAAUAUUACGAAUG | -0.423 ± 0.1 | -1.27 ± 0.11
AGACAGCAAUAUUACGUCCU | -0.257 ± 0.066 | -0.567 ± 0.052
CUACAGCAAUAUUACGUGAA | -2.08 ± 0.17 | -4.26 ± 0.19
GUAGAGCAAUAUUACGGUUC | -0.825 ± 0.14 | -1.84 ± 0.11
GGUGAGCAAUAUUACGACUG | 0.309 ± 0.13 | -0.488 ± 0.11
AGGGAGCAAUAUUACGCUCA | -1.14 ± 0.13 | -1.16 ± 0.11
CGGUAGCAAUAUUACGGUAG | -0.0774 ± 0.089 | -0.557 ± 0.071
AUAGAGCAAUAUUACGUUGC | -2.05 ± 0.26 | -2.95 ± 0.2
UGCGAGCAAUAUUACGGAAC | -2.25 ± 0.39 | –
UAGCAGCAAUAUUACGGUUC | -1.89 ± 0.091 | -3.12 ± 0.1
